One test concerns the target human Plasmin (human, UniProt P00747 97-580; P00747 581-810, limits assumed). The test can be described thus: cell-based or functional assay.
The target in test [1] is T1, A2AP peptides with the consensus motif SRMSLSS (human).
T1 construct: Consensus motif shared by the reacting peptides of the PEPperCHIP arrays (linear 15-mers; cyclic 7-, 10- and 13-mers closed by a thioether)
T1 peptide: SRMSLSS
The test is described as follows: PEPperCHIP peptide microarray, antibody at 10 µg/ml. On the procedure: Antibodies were incubated on the Microarray in concentrations of 1 μg/ml, 10 μg/ml and 100 μg/ml in incubation buffer. Incubation time was 16 h at 4° C. and shaking at 140 rpm.
As secondary antibody the goat anti-human IgG (Fc) DyLight680 was used at a dilution of 1:5000. This detection antibody was incubated on the Microarray at 45 min staining in incubation buffer at room temperature.
Microarray image analysis was done with PepSlide® Analyzer. A software algorithm was used to break down fluorescence intensities of each spot into raw, foreground and background signal, and calculated averaged median foreground intensities and spot-to-spot deviations of spot duplicates. Based on averaged median foreground intensities, an intensity map was generated and interactions in the peptide map highlighted by an intensity color code with red for high and white for low spot intensities. Averaged spot intensities of the assays were plotted with the antibody samples against the antigen sequence from the N- to the C-terminus to visualize overall spot intensities and signal-to-noise ratios. The intensity plots were correlated with peptide and intensity maps as well as with visual inspection of the microarray scans to identify the epitopes of the tested antibodies.

Test [2] has as its target T2, cynomolgus alpha2-Antiplasmin (cynomolgus (Macaca fascicularis), UniProt P08697 28-491 (human entry)).
T2 construct: Made in house in the same way as the rabbit protein; also called cynomolgus A2AP; Macaca fascicularis A2AP
T2 chain: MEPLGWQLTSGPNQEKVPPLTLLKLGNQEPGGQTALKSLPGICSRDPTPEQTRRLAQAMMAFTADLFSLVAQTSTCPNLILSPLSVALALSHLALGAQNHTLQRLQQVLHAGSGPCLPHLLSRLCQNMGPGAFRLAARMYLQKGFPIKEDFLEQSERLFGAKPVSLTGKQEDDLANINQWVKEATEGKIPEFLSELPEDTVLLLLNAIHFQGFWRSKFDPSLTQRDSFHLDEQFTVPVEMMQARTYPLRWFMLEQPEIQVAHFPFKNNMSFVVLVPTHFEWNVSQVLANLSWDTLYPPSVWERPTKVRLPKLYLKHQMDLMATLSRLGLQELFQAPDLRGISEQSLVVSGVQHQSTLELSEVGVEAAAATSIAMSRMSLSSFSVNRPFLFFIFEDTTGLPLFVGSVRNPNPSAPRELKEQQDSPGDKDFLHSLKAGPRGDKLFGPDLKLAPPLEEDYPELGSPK
The test is described as follows: ELISA, coated antigen (FIG. 6.1 legend). On the technique in general: In an ELISA, binding on a coated surface is turned into a signal by an enzyme label.

The next test concerns the target T3, human alpha2-Antiplasmin (human, UniProt P08697 40-491).
T3 construct: Bought (antibodies online, ABIN2544306); also called human A2AP; a2AP
T3 sequence: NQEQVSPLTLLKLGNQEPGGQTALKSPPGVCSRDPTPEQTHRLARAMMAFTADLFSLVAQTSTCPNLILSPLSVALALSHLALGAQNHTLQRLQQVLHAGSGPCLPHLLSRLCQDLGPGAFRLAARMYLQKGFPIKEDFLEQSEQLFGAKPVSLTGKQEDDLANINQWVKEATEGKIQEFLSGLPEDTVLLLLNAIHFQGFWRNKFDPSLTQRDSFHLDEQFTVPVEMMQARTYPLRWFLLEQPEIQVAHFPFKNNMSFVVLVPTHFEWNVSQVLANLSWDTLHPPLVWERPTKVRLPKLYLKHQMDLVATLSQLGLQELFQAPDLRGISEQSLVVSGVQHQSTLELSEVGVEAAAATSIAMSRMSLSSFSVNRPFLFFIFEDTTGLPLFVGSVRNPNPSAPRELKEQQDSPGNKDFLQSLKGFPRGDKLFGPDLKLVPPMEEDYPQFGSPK
The test is described as follows: ELISA (Example 3): antigen coated at 1 ug/ml, detection with anti-human lambda light chain-peroxidase and Amplex Red, RFU [left panel]. On the procedure: Binding activities towards human alpha2-Antiplasmin are shown in the left panel, towards rabbit alpha2-Antiplasmin are shown in the right panel of this figure. The binding activities were calculated as EC50 in M values.
A standard ELISA format was used for analyzing the binding affinity of Fabs of this invention to human and rabbit alpha-2-Antiplasmin, respectively. Antigens were coated to black 384 well Maxisorp microtiter plates (Nunc; catalogue number 460518), diluted to a concentration of 1 μg/ml in 1× Coating Buffer (Candor Bioscience; catalogue number 121125). Plates were incubated overnight at 4° C. After overnight incubation, plates were washed 2× with 50 μl/well using PBS+0.05% Tween 20. Following this, 50 μl/well of blocking buffer (Smart Block; Candor Bioscience; catalogue number 113500) was added and the plates were incubated for 1 hour at room temperature. Afterwards, plates were washed for 3× using […] PBS+0.05% Tween 20 buffer. Fabs of this invention were added at different concentrations in a final volume of 30 μl/well. Plates were incubated for 1 hour at room temperature. Following this incubation step, plates were washed for 3× using 50 μl/well of a PBS+0.05% Tween 20 buffer. […]
For measurement, the Infinite f500 reader (Tecan) was used.

As usually defined, the EC50 is the midpoint of the concentration-response curve. A low value points to higher potency in that assay. As usually defined, the EC50 (read off the curve) is the concentration at which the effect is half-maximal.

human Plasmin, sequence (P00747 97-580 limits assumed, chain 1 of 2): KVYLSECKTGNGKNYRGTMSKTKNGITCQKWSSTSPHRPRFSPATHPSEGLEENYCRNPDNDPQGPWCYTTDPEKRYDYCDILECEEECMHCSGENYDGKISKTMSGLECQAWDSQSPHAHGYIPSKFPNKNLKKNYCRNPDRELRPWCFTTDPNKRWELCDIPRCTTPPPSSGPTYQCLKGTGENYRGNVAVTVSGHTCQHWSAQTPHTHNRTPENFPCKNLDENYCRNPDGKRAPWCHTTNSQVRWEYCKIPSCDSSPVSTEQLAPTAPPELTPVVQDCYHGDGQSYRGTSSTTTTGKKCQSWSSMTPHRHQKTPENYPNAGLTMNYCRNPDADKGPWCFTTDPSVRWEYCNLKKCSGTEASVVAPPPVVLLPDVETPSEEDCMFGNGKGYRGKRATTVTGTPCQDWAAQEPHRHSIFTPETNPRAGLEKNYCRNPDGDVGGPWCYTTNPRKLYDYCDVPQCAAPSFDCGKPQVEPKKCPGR
human Plasmin, sequence (P00747 581-810 limits assumed, chain 2 of 2): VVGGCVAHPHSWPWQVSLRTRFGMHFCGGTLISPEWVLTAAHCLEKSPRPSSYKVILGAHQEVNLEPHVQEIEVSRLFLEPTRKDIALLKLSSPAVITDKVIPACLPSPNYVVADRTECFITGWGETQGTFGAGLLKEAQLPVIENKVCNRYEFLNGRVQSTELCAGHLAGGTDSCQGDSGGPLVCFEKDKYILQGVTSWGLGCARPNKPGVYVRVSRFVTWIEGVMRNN

B1: TPP-12387 hIgG1 (antibody, V domains shown)
VH: EVQLLESGGGLVQPGGSLRLSCAASGFTFDDYAMSWVRQAPGKGLEWVSAIGTGGGTYYADSVKGRFTISRDNSKNTLYLQMNSLRAEDTAVYYCAREYYDSSGYYHLDYWGQGTLVTVSS
VL: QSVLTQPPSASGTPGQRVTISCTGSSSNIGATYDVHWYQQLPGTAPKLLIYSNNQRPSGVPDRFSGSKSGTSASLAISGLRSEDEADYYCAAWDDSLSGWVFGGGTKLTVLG
notes: Fully human IgG1 lambda from the BioInvent n-CoDeR Fab lambda library; parental lead antibody
Turning to B1, the “IC50 [M], inhibition of plasmin proteolytic activity” value in the test with human Plasmin was above 1e-05 M. Besides, the “signal-to-noise-ratio at 10 µg/ml” value in test [1] turned out to be 2260. Further, it took 0.099 µM to reach a half-maximal effect in test [2] (EC50). Further, the “EC50 (read off the curve)” value with human alpha2-Antiplasmin is around 0.1 µM.
